In paper doi:10.1101/2024.08.25.607996:

Tests used:
[1] = target: feline APN ectodomain without the Fc fusion (dimer) (feline) (UniProt P79171); assay: cryo-EM structure
[2] = target: FCoV-23 S domain B (receptor-binding domain), residues 529-677, avi- and His-tagged (FCoV-23 (feline coronavirus)); assay: BLI

canine APN-Fc ectodomain (dimeric), sequence (P79143 71-975): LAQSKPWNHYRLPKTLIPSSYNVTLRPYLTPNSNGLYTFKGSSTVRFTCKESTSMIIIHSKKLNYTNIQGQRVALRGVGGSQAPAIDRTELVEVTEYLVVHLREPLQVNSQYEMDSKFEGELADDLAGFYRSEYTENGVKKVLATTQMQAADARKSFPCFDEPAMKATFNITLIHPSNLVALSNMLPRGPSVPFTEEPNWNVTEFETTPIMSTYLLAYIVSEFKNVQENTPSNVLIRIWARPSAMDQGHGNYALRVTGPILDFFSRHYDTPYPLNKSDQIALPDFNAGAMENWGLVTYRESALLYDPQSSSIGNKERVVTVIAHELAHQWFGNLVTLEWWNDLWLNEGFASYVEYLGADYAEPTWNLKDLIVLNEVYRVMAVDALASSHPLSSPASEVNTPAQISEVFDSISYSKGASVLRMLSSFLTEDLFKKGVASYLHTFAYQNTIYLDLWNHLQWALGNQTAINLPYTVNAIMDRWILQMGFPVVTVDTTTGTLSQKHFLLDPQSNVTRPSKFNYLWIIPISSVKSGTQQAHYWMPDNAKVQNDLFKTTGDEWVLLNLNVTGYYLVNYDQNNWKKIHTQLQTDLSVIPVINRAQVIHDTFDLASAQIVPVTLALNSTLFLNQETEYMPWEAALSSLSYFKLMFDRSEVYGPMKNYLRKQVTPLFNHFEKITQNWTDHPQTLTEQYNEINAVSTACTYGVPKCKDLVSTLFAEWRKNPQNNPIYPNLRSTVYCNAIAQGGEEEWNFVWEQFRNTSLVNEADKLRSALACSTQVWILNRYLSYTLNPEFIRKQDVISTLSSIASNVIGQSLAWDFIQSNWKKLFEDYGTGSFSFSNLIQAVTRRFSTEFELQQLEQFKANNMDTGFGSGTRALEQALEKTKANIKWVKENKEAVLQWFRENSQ
feline APN-Fc ectodomain (dimeric), sequence (P79171 64-967): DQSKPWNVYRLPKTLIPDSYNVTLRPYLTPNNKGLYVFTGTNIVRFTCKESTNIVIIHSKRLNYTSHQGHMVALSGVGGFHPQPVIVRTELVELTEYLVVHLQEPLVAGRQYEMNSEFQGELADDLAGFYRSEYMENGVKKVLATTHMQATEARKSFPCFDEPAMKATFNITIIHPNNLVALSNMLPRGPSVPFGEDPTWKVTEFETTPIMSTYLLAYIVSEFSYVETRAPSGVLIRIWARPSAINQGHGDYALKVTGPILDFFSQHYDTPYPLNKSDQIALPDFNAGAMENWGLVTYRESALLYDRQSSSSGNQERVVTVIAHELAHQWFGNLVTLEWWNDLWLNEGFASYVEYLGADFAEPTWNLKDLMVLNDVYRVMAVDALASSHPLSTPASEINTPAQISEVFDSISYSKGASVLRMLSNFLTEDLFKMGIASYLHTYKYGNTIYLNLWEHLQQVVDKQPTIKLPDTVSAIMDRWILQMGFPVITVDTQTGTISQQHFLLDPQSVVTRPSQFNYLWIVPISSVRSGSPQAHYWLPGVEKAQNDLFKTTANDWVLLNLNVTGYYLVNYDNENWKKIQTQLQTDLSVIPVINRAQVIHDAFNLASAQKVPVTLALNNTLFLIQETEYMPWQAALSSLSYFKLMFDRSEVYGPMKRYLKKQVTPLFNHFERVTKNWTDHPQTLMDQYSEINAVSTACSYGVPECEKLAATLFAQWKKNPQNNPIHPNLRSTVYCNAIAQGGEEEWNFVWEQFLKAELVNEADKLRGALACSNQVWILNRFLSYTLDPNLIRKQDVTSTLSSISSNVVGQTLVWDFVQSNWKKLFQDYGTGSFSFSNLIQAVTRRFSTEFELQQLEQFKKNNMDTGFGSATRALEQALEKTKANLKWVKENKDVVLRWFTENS
feline APN ectodomain without the Fc fusion (dimer) (feline), sequence (P79171 64-967): as above

Substance | stoichiometry N (RBD per APN protomer) [1] | Kd [2]
FCoV-23 S domain B (receptor-binding domain), residues 529-677, avi- and His-tagged (domain or fragment) | 1 | 
canine APN-Fc ectodomain (dimeric) (from UniProt P79143 71-975) (Fc fusion) |  | 1.3 nM
feline APN-Fc ectodomain (dimeric) (from UniProt P79171 64-967) (Fc fusion) |  | 11 nM
